Measurements from publication PMC10782416, “Fluorescence Correlation Spectroscopy as a Versatile Method to Define Aptamer–Protein Interactions with Single-Molecule Sensitivity”.

How the values were obtained:
transferrin (Tf) = transferrin (Tf) (Homo sapiens, UniProt P02787 20-698); assay: FCS; Tf 1-100 uM; PBS pH 7.4; aptamer folded in PBS with 5 mM MgCl2 (1 mM for AS1411 and 36t), 90 C 2 min then cooled; final buffer not detailed; overnight at room temperature; 100 pM aptamer (1 nM for serum proteins); settings: protein: native; label: 5'-atto633; G-quadruplex
Sequence of transferrin (Tf) (P02787 20-698): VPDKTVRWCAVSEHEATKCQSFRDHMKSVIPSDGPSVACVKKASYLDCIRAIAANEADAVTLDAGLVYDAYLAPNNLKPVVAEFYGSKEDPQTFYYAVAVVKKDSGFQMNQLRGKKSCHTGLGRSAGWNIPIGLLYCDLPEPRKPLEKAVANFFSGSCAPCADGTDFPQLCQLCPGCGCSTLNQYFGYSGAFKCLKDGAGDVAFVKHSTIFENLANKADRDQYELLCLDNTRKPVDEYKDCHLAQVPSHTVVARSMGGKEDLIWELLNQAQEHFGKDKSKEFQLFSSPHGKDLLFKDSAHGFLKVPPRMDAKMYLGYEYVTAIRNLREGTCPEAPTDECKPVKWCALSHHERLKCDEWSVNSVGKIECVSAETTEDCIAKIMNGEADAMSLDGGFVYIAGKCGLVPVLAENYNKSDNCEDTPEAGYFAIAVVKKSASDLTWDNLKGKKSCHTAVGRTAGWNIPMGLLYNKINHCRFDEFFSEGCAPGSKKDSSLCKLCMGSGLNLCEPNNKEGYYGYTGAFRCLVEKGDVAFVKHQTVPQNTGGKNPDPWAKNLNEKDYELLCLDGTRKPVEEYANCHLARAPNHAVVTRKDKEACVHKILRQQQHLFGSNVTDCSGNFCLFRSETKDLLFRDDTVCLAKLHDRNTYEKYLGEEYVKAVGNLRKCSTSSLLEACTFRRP

fibrinogen (Fibr) = fibrinogen (Fibr) (Homo sapiens, UniProt P02671;P02675;P02679 20-629;31-491;27-433); assay: FCS; fibrinogen 1-10 uM; PBS pH 7.4; aptamer folded in PBS with 5 mM MgCl2 (1 mM for AS1411 and 36t), 90 C 2 min then cooled; final buffer not detailed; overnight at room temperature; 100 pM aptamer (1 nM for serum proteins); settings: protein: native; chain copies: 2;2;2; label: 5'-atto633; G-quadruplex
Sequence of fibrinogen (Fibr) (P02671 20-629, chain 1 of 3): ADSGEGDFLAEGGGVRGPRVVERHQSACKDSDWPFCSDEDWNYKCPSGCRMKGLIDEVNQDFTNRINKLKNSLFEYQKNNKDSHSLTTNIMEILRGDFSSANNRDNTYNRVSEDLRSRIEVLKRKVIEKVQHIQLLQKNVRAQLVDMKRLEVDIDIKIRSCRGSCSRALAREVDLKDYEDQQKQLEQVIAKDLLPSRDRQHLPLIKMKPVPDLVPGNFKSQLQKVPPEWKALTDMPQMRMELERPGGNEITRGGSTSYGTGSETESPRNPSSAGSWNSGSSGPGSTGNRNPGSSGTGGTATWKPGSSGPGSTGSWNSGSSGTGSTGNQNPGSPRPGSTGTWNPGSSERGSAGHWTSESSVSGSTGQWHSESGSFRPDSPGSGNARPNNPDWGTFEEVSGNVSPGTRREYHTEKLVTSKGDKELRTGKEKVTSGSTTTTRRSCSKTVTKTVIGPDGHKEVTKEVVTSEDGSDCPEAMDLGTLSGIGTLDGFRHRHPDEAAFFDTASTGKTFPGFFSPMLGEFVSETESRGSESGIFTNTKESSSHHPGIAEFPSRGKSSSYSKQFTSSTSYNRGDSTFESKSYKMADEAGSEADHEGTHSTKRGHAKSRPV
Sequence of fibrinogen (Fibr) (P02675 31-491, chain 2 of 3): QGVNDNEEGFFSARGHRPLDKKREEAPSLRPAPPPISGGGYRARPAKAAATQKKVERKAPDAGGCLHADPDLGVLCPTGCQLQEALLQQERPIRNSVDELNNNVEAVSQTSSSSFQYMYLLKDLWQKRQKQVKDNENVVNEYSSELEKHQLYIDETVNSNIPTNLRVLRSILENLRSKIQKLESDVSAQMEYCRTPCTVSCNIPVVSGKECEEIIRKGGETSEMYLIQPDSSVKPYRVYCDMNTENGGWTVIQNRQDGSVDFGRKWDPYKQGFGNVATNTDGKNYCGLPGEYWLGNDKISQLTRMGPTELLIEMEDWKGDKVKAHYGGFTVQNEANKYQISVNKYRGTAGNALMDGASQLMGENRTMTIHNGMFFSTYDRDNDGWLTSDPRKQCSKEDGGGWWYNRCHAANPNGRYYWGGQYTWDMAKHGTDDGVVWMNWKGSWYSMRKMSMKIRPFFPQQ
Sequence of fibrinogen (Fibr) (P02679 27-433, chain 3 of 3): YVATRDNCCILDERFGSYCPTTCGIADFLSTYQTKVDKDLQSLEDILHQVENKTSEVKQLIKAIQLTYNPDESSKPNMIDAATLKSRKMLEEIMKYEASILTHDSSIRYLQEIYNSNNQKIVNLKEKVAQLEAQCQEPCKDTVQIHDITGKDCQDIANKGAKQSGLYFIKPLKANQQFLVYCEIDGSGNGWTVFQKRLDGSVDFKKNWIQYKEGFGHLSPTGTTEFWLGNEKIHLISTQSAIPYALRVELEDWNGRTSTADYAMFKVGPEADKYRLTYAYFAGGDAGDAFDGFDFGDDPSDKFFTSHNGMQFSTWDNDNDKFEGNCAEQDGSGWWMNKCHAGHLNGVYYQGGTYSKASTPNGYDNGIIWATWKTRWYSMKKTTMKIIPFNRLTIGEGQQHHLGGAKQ

[1] = target: T1, c-Met (soluble recombinant, hepatocyte growth factor receptor) (Homo sapiens, UniProt P08581 25-932); assay: FCS; 5 mM Mg2+ in folding buffer; 100 pM aptamer; PBS pH 7.4; aptamer folded in PBS with 5 mM MgCl2 (1 mM for AS1411 and 36t), 90 C 2 min then cooled; final buffer not detailed; overnight at room temperature; 100 pM aptamer (1 nM for serum proteins); settings: protein: commercial; tags: polyhistidine tag; label: 5'-atto633; G-quadruplex
T1 sequence (P08581 25-932): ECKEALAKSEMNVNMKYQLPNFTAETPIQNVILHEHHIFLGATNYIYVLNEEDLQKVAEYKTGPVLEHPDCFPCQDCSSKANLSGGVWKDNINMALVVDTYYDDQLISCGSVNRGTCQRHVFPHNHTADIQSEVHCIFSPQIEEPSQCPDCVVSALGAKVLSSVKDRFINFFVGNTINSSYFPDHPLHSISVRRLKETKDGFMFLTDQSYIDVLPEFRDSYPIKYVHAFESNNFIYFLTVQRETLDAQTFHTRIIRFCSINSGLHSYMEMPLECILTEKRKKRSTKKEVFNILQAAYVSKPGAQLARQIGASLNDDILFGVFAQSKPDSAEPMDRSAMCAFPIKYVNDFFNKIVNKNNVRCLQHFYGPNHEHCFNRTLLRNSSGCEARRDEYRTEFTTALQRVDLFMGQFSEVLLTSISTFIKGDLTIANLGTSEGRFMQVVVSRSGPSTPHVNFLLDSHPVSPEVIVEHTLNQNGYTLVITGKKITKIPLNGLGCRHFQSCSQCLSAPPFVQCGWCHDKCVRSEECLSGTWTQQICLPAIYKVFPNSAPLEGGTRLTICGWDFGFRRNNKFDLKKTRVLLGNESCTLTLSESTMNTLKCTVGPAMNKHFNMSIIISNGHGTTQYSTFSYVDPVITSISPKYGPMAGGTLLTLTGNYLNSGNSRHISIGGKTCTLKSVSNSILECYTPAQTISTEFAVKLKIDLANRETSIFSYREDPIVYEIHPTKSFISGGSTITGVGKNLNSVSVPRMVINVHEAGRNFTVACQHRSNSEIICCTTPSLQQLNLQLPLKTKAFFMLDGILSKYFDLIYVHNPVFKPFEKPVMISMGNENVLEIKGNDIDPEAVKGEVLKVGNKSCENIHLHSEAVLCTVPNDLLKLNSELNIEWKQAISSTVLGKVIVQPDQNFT

[2] = target: T1, c-Met (soluble recombinant, hepatocyte …); assay: FCS; serum protein mix: HSA, IgG, transferrin, fibrinogen; PBS pH 7.4; aptamer folded in PBS with 5 mM MgCl2 (1 mM for AS1411 and 36t), 90 C 2 min then cooled; final buffer not detailed; overnight at room temperature; 100 pM aptamer (1 nM for serum proteins); settings: protein: commercial; tags: polyhistidine tag; label: 5'-atto633; G-quadruplex
[3] = target: T1, c-Met (soluble recombinant, hepatocyte …); assay: FCS kinetics (koff/kon); kon 1.70e4 M-1 s-1; koff 4.30e-4 s-1; PBS pH 7.4; aptamer folded in PBS with 5 mM MgCl2 (1 mM for AS1411 and 36t), 90 C 2 min then cooled; final buffer not detailed; overnight at room temperature; 100 pM aptamer (1 nM for serum proteins); settings: protein: commercial; tags: polyhistidine tag; label: 5'-atto633; G-quadruplex
nucleolin (NCL) = nucleolin (NCL) (Homo sapiens, UniProt P19338 1-710); assay: FCS; 1 mM Mg2+ in folding buffer; PBS pH 7.4; aptamer folded in PBS with 5 mM MgCl2 (1 mM for AS1411 and 36t), 90 C 2 min then cooled; final buffer not detailed; overnight at room temperature; 100 pM aptamer (1 nM for serum proteins); settings: protein: commercial; label: 5'-atto633
Sequence of nucleolin (NCL) (P19338 whole entry): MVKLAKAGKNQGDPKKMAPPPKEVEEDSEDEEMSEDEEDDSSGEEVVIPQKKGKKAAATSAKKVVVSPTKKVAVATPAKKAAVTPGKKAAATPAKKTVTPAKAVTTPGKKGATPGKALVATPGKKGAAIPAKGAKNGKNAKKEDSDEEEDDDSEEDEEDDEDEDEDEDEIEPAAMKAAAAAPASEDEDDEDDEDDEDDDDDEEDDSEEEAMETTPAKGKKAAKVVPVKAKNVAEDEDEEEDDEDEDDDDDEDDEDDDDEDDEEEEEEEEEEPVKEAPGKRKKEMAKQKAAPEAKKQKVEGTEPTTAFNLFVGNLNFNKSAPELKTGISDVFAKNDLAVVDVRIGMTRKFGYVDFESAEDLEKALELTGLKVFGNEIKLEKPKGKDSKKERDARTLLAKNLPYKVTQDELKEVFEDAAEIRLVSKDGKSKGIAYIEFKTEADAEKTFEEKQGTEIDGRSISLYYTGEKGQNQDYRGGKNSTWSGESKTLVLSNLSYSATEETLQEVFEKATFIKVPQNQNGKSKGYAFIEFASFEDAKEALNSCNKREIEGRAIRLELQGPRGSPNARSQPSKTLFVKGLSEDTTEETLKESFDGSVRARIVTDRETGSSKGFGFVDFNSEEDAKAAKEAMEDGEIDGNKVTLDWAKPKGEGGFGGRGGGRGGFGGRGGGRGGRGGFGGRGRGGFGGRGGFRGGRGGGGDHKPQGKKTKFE

PDGF-BB = PDGF-BB (Homo sapiens, UniProt P01127 82-190); assay: FCS; 1 mg/mL BSA; 1 mM Mg2+ in folding buffer; titration regime; PBS pH 7.4; aptamer folded in PBS with 5 mM MgCl2 (1 mM for AS1411 and 36t), 90 C 2 min then cooled; final buffer not detailed; overnight at room temperature; 100 pM aptamer (1 nM for serum proteins); settings: protein: commercial; chain copies: 2; label: 5'-atto633
Sequence of PDGF-BB (P01127 82-190): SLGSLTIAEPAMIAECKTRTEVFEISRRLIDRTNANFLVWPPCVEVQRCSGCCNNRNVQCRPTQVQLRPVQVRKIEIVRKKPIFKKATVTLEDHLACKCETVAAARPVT

[4] = target: T1, c-Met (soluble recombinant, hepatocyte …); assay: FCS; c-Met up to 100 nM; PBS pH 7.4; aptamer folded in PBS with 5 mM MgCl2 (1 mM for AS1411 and 36t), 90 C 2 min then cooled; final buffer not detailed; overnight at room temperature; 100 pM aptamer (1 nM for serum proteins); settings: protein: commercial; tags: polyhistidine tag; chain copies: 2; label: 5'-atto633; G-quadruplex destabilized

B1: CLN3 (structured_DNA)
DNA: ATCAGGTGGATGGTAGCTCGGTCGGGGTGGGTGGGTTGGCAAGTCTGATTA
B1 was tested, and the binding result (transferrin (Tf)) was “no binding”, the binding result (fibrinogen (Fibr)) was “no binding” and the Kd [1] was 5 ± 1 nM. For the same binder, the Kd [2] was 5 nM and the Kd [3] was ~25 nM.

TTTGGTGGTGGTGGTTGTGGTGGTGGTGG (structured_DNA) [AS1411] was tested, and the Kd (nucleolin (NCL)) was 30 nM.

In the case of CACAGGCTACGGCACGTAGAGCATCACCATGATCCTGTG (structured_DNA) [36t], the Kd (PDGF-BB) is reported as < 1 nM.

B2: G5mut (ssDNA)
DNA: ATCAGGCTGGATGGTAGCTCGGTCGATGTGGATGGTTTGTCAAGTCTGATTA
B2: no binding [4].
